Experimental data: a protein production outcome set (Wang et al. 2014)

Assay: label from the status in PepcDB records

Row | Sequence | protein production
1 | MEDIFSKRKTLRTIKADTSDYFIPLFHTLAVFLSTKETIITKRFLEHIMKNLIALTLLLGGSTLLCAQKPAKTPATYKPVKSEMYRKGWIDFNKNGVKDVYEDPSAPLEARIENLLQQMTLDEKTCQMVTLYGYKRVLKDDLPTPEWKELLWKDGIGAIDEHLNGFQQWGLPPSDNAYVWPASRHAWALNEVQRFFVEDTRLGIPVDFTNEGIRGVESYRATNFPTQLGLGHTWNRELIRQVGLITGREARMLGYTNVYAPILDVGRDQRWGRYEEVYGESPYLVAELGIEMVRGLQHNHQVAATGKHFAAYSNNKGAREGMARVDPQMSPREVENIHIYPFKRVIREAGMLGVMSSYNDYDGIPVQGSYYWLTTRLRGEMGFRGYVVSDSDAVEYLYTKHGTAKDMKEAVRQSVEAGLNVRCTFRSPDSFVLPLRELVKEGGLSEEVINDRVRDILRVKFLIGLFDAPYQTDLADADREVEKEENEAIALQASRESIVLLKNAGELLPLDINSTKKIAVCGPNANEEGYALTHYGPLAVEVTTVLEGIQEKTKGKAEVLYTKGCDLVDAHWPESEIIDYPLTDDEQAEIDKAVENARQADVAIVVLGGGQRTCGENKSRTSLDLPGRQLQLLQAIQATGKPVVLILINGRPLSINWADKFVPAILEAWYPGSKGGTALADILFGDYNPGGKLTVTFPKTVGQIPFNFPCKPSSQIDGGKNPGPTGNMSRINGALYPFGYGLSYTTFEYSDLDITPRVITPNESATVRLKVTNTGKRAGDEVVQLYIRDVLSSITTYEKNLAGFQRIHLEPGEAQELSFTIDRKHLELLDADMKWVVEPGDFVLMAGASSEDIRLNGTLTVEDYQTRAKAIEAQKPAKRVSASTNPEDAENVLDEKINTAWQGNKGDYITFALKNGAKVDKVAIAFTRDNNLPATFEIQLSGGGGQFLTVYSGTVSEYGKLISYPFKGTTASDLRIVLNDDRVSIAEVKF | failed
2 | MEDKAVSPIIATILLIAITVALAATFYTEVTPYFTEAQYYTPQAVTDVMNVSNGSSFSYDIYIQFFPANLTASQVEISLHVGSSYEYINLKMLSPFGKTTLNNGSITISQYPSAGYFTQGLIFVINSTLPLHSIIFVDLKTSSSINTVSI | failed
3 | MEDKKEYAKYAGFRIRFAAMLIDVVILVILFSIPVGFIYGQEYWQGEKLIYGFWDVLINYVIPAILTIFFWIKFLGTPGKMILKLRVVDEHTGGTLSIGKAIGRYFAYILSILPVFLGFFWIGFSDKKQGWHDILAGTVVIRSESKGPFEFRS | failed
4 | MEDKRISEKESLELIACMIRETQDNTARYAAYPLLIWGYTTVAISLVVWYFYLQTGVWQINFLWFALPVIAGPLTIFFNRKDKNKGAKNYIDRVTGQIWAVFGVVGFCLSCMAFVVRIDILFVISLLMGMGATLTGLVCKYKPLSIAGMTGIALSFSMLFIHGSGVYLVFAAIFIVMMIVPGHIMNKQMKKQCLKN | failed
5 | MEDLLVVGQIINTHGLRGEMKVMPLTEDMRRFDYLEYVILKGKKVKVEGVKYFKDKVILKLEGINSIEEAEKLKRTYLEIEREDAIELEEDEYFIVDLVGCTVVDTEGFEYGKIKDVIQTPSNDVYWVQGKKEVLVPVLKDIVLDINMDEKLITIRPSGEWQYEDLEHHHHHH | failed
6 | MEDSSGQSLLFQFILLLILTLLSAFFSASEMALVSLNRSRVEQKAEEGDKKFIRLLKVLENPNNFLSTIQVGITFIGLLQGASLSASLGAVIATWFGNVAWAKTAGSVVSLVVLTYISIVFGELYPKRIAMNLKENLAIYSAPVIIVTGKIVSPFVWILSASTNLLSRLTPMTFDDADEPMTRDEIEYMLTKSEDTLEAEEIEMLQGIFSLDELMAREVMVPRTDAFMIDIEDDTQENIQAILKQSFSRIPVYEDNKDKIIGVIHTKKLLKAAYELGFENVNLRRIMNEPLFVPETIFVDDLLAAFRNTNNQMAILLDEYGGVAGLVTFEDLLEEIVGEIDDETDKASVEVREIGENTYIVEGSMTLNDFNEHFDTELESDDVDTIAGYYLTGVGAIPTQEVKEHYEVINKDKRLEFINDKVKDGRVTKLKVIITAAPEEAGE | failed
7 | MEDTTFTKVFVGGLAWETHKVSLRNYFEQFGDIVEAVVITDKSSGRSKGYGFVTFCDPEAAQKACVDPAPVIDGRRANCNLAAFGVQRSKPSSPIHGTFRFLSFDTLLLKTLHQEYM | failed
8 | MEDYGFEYSDEEQEEQDVDIENQYYNSKGMVETEPEEALSGFAEVVQMEPEKADWGFKALKQTVKIYYRLGKYKEMMEAYTEMLTYIKSAVTRNYSEKCINNIMDFVSGSASQNTGLLQEFYQTTLKALEEAKNERLWFKTNLKLCNIWFDIGEYRRMTKILKELHKSCQKEDGTDDQKKGSQLLEVYAIEIQIYTETKDNKKLKQLYHKALAIKSAIPHPRIMGIIRECGGKMHMAERQWEEAATDFFEAFKNYDEAGNQRRIQCLKYLVLANMLMESEVNPFDGQEAKPYKNDPEILAMTNLIAAYQRNEIIEFERILKSNRRTIMDDPFIRNYMEDLLKKVRTQVLLKLIKPYTKIGIPFISKELNVPETDVTELLVSLILDSRIDGHIDEMNRYLLRGDSGNGRKLHKAVDKWNSQLKSLSSNITSRVC | failed
9 | MEEFQFTKRVHNILKIAAEEGESNIIQPVHLFIGMCKEGTGVCSELYMYLFRNVGTDFLEKLSLRKQDDLTDQEYEKIGQYKVSYKVLEILQIAKKRMERFQQVLMNEGHVIYALFRADTFIENPQIQKEILRIVEEPRDLAVDLKCFVPAYTHLTCHVRKANSSDFGKLVSFVSEEFGERWLHSIEYGFRTYKENVPIYIAEQKEVIVGFACYDVVRGKKGLFGPMGTAKQNRVKSVGKQLLHCSLHSMKQDGYEYAIIGQAGPVEFYERCCNARLIPIMDY | failed
10 | MEEKRRRARVQGAWAAPVKSQAIAQPATTAKSHLHQKPGQTWKNKEHHLSDREFVFKEPQQVVRRAPEPRVIDREGVYEISLSPTGVSRVCLYPGFVDVKEADWILEQLCQDVPWKQRTGIREDITYQQPRLTAWYGELPYTYSRITMEPNPHWHPVLRTLKNRIEENTGHTFNSLLCNLYRNEKDSVDWHSDDEPSLGRCPIIASLSFGATRTFEMRKKPPPEENGEYTYVERVKIPLDHGTLLIMEGATQADWQHRVPKEYHSREPRVNLTFRTVYPDPRGAPW | failed
11 | MEELQEPLRGQLRLCFTQAARTSLLLLRLNDAALRALQECQRQQVRPVIAFQGHRGYLRLPGPGWSCLFSFIVSQCCQEGAGGSLDLVCQRFLRSGPNSLHCLGSLRERLIIWAAMDSIPAPSSVQGHNLTEDARHPESWQNTGGYSEGDAVSQPQMALEEVSVSDPLASNQGQSLPGSSREHMAQWEVRSQTHVPNREPVQALPSSASRKRLDKKRSVPVATVELEEKRFRTLPLVPSPLQGLTNQDLQEGEDWEQEDEDMDPRLEHSSSVQEDSESPSPEDIPDYLLQYRAIHSAEQQHAYEQDFETDYAEYRILHARVGTASQRFIELGAEIKRVRRGTPEYKVLEDKIIQEYKKFRKQYPSYREEKRRCEYLHQKLSHIKGLILEFEEKNRGS | failed
12 | MEELSAAEPGPEPGPEPESAPESESEPGPAGAGDAPGDGVIVTRALTKRYRGGQLAVDGLDLTVPAGSVFGFLGPNGSGKTTTIRMLMGLIEPTSGTARVLGRPMPRSARTVLPHIGALIEGPALYGFLSGRDNLLRYDAADPTADPRTRRTRVAATLDRVGLTAAAGKKAKAYSLGMKQRLGLAAALLQPRRLLVLDEPTNGLDPQGMREIRSLVRELASDGTTVFLSSHLLDEIEQVCTHAAVMAQGRLITQGAVADLAAGARGRLVVTTPDVTDAARVLKEQGVADIVVAEDRVTGEPPDGELAELNAALVTAAVRVRGFGVERASLEDAFVALTGEGFDVAGLEHHHHHH | failed
13 | MEELTQILKNNRTDDLTWFCSLSESELDLLISLKKLAIQRAKISGHQELADKFDLKLLRSLGLVLMEHARKRVQNDTSLAPSVVHQLRLLDNCNLLKTHVDDAVDIEEILTQICDNKSKKKARKRRR | failed
14 | MEERMEMISERPKESMYSWNKTAEKSDFEAVEALMSMSCSWKSDFKKYVENRPVTPVSDLSEEENLLPGTPDFHTIPAFCLTPPYSPSDFEPSQVSNLMAPAPSTVHFKSLSDTAKPHIAAPFKEEEKSPVSAPKLPKAQATSVIRHTADAQLCNHQTCPMKAASILNYQNNSFRRRTHLNVEAARKNIPCAAVSPNRSKCERNTVADVDEKASAALYDFSVPSSETVICRSQPAPVSPQQKSVLVSPPAVSAGGVPPMPVICQMVPLPANNPVVTTVVPSTPPSQPPAVCPPVVFMGTQVPKGAVMFVVPQPVVQSSKPPVVSPNGTRLSPIAPAPGFSPSAAKVTPQIDSSRIRSHICSHPGCGKTYFKSSHLKAHTRTHTGEKPFSCSWKGCERRFARSDELSRHRRTHTGEKKFACPMCDRRFMRSDHLTKHARRHLSAKKLPNWQMEVSKLNDIALPPTPAPTQ | not failed
15 | MEESLKVGIAGLGTVGSSVVRILREKANSLTCQCGRSIKVVAVSARDKSRNRGIDLSDVKWFDSPVEMASSDEIDVFVELIGGESDVVYAAVKKALETGHHVVTANKALLAQHGGRLAVSAEKKGVFLHFEAAVAGGIPIIKVMRESLVSNHISRIYGILNGTCNYILTRMFTEGLSFKECLEDAQRLGYAEVDPTFDIGGNDTAHKLALLTSLAFGTAVSLDDIYVEGISNISQIDIRAADELGYRIKLLGVALKTETGIEQRVHPTMVPTSSMIAQIHGVTNALSIQSDLLGELLLSGPGAGGTATASAVIGDLADIAKARPGFQYAPVLGRPALGLAPHKKARISHHAGGYFIRLNVHDRAGVFAAVAKHMAGNHISLESIVQRSFVESQSVKTIILITHETTEVNVQQALAAIEKDGHLVAKSQFIRIEPMVLEHHHHHH | failed
16 | MEETRPIDGLTDEDIREILTRYKKIALVGASPKPERDANIVMKYLLEHGYDVYPVNPKYEEVLGRKCYPSVLDIPDKIEVVDLFVKPKLTMEYVEQAIKKGAKVVWFQYNTYNREASKKADEAGLIIVANRCMMREHERLLGEK | not failed
17 | MEEVLPNVYLIDTLKYVEPGVISAYAVVHERAAIIDPGTAKGAEIILDEIDRSWNVEYICPTHIHIDHGGGAARLAKALDAKIIVHPRGVKHVVNPEKLWEASKAVLGEVAEIYGKPESIDESKVIAVEDEQEFDLGGERLKVFHAPGHAPHMLVYYLTNSKVLFPADAVGMCFGGVVFPLTPPPFDADAALKTLKRLKGLKVDYVAFTHYGVVEGDWPIAKSYEKVKSWLEIAKEVANANGTVEEFVGRLRKEDEDVEKLFNVLGSKPVALSFIYTSATGMLDAARRMIE | failed
18 | MEFLGSLLTFLIDIVGSFGYFGILLIVGLEYACFPLPSEVVLTFFGLSASQGEFSLIGVIIFSIIGGLLGSLICYAIGYYGGVPLQEWLGRKFPSSQKSMLALNKWFKKYGKPAVLLARIVPLTRTYVSLLAGAEKFSLKYFILYSSLGISIWNIFLVSLGYFIGDNLPLINSIMEKYTFVTLAILIIAVIIFIYLKFFKKEKNTSK | failed
19 | MEFLSLVIVVVAAFMTPIIVHRFNINFLPVVVAEILMGIVIGHSFLNLVERDAFLNILSTLGFIFLMFLSGLEIDFNAFKKDSRPRQGEDKHEKDVPGHLKLALTVFAFIMMISVVLAFAFKWLGLVNDVLLMVIIISTISLGVVVPTLKEMNIMRTTIGQFILLVAVLADLFTMILLTVYGAIYGEGGSTIWLTGILVVFTVVFYVIGVLFKRMSFLQKLMDGTTQIGIRAVFALIILLVALAEGVGAEYILGAFLAGVVVSLLKPNEEMVEKLDSFGYGFFIPIFFIMVGVDLDIPSLIKEPSLLLIIPVLIFSFIISKLIPVFYIRRWFDTKTTIASAFLLTSTLSLVIAAAKIAEKLKAISPETSGILILSAVITCVFVPVIFKKMFPIPNEVGRRIEVSMIGKNQLTIPIAQNLTSQLYDISLYYRKDLSDSRKLSDDITMIEIADYEEDLLERLGLFERDIVVCSTNDDHINKSVALMAKKHGVKRVICRLESTNEDPTLKHQGIEVFSNYLSNKILLKSLIETPNMLNLLSNVETSLYEIQMLNYQYENIQLRNFPFGGDIIFVRIIRDNDSIVPHGDTQLRYKDRLIVTGTKEYVDELKQELEFYY | failed
